Consider four molecules from article PMC3159460.

Data set [1] addresses T1, Sso7c4 (Saccharolobus (Sulfolobus) solfataricus …, UniProt P81552 2-56).
T1 sequence: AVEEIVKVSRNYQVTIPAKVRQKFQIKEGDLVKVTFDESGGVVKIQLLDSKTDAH
The data set can be described thus: SPR.

For data set [2], the target named is T1, Sso7c4. As to the kind of experiment: NMR 1D 1H titration of DNA.
Data set [3] deals with T1, Sso7c4. As to the kind of experiment: NMR 1H-15N HSQC titration.

B1: 8-mer duplex (SPR, biotinylated) (dsDNA)
DNA 1: CGCTATAGCG
DNA 2: CGCTATAGCG
B1 yielded a Kd in data set [1] of 10.1 µM.

B2: 12-mer duplex (dsDNA)
DNA 1: CAATCCGGATTG
DNA 2: CAATCCGGATTG
Take B2: in data set [2], the binding result is reported as “binds”.

B3: 16-mer duplex (SPR, biotinylated) (dsDNA)
DNA 1: CGCGTACGCGTACGCG
DNA 2: CGCGTACGCGTACGCG
The molecule B3 registered a Kd in data set [1] of 1.54 µM. In other words, the single-digit micromolar range.

B4: 16-mer duplex (NMR) (dsDNA)
DNA 1: CGCGTACGCGTACGCGTA
DNA 2: TACGCGTACGCGTACGCG
On to B4, for which the binding result in data set [3] is on record as “binds”.
